T1: SpoIVA, adenylate cyclase T18/T25 hybrid (Bacillus subtilis, UniProt P35149 1-492)
T1 construct: SpoIVA, basement layer coat morphogenetic protein (ATPase) of Bacillus subtilis; gene amplified from genomic DNA; also called T25-SpoIVA; T18-SpoIVA; source: bacterial two-hybrid fusion, E. coli BTH101; not shown: T18 or T25 domain of adenylate cyclase, N-terminal or C-terminal (by the plasmid combination), kept
T1 sequence (looked up): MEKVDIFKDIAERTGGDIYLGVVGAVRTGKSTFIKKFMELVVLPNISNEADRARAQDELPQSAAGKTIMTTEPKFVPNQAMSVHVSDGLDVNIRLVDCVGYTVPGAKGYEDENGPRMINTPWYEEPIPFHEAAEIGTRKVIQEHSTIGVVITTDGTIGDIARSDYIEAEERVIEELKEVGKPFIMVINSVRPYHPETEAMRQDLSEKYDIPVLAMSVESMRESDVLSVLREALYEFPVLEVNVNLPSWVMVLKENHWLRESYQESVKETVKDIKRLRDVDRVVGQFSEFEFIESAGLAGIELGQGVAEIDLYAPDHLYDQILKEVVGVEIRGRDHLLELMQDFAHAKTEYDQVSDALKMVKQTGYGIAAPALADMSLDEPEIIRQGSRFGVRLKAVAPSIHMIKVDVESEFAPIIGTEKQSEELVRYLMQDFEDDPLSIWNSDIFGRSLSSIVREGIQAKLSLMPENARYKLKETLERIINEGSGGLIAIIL

B1: SpoVE, adenylate cyclase T18/T25 hybrid (natural protein, Bacillus subtilis, UniProt P07373 1-366, looked up)
chain: MTTKKTSPDLLLVIITLLLLTIGLIMVYSASAVWADYKFDDSFFFAKRQLLFAGIGVIAMFFIMNVDYWTWRTWSKLLMVICFFLLVLVLIPGVGMVRNGSRSWIGVGAFSIQPSEFMKLAMIAFLAKFLSEKQKNITSFRRGFVPALGIVFSAFLIIMCQPDLGTGTVMVGTCIVMIFVAGARIAHFVFLGLIGLSGFVGLVLSAPYRIKRITSYLNPWEDPLGSGFQIIQSLYAVGPGGLFGMGLGQSRQKFFYLPEPQTDFIFAILSEELGFIGGTLILLLFSVLLWRGIRIALGAPDLYGSFVAVGIISMIAIQVMINIGVVTGLIPVTGITLPFLSYGGSSLTLMLMAVGVLLNVSRYSRY
notes: SpoVE, SEDS family membrane protein essential for cortex synthesis, Bacillus subtilis; gene amplified from genomic DNA; also called SpoVE–T18; T25–SpoVE; source: bacterial two-hybrid fusion, E. coli BTH101; not shown: T18 or T25 domain of adenylate cyclase, N-terminal or C-terminal (by the plasmid combination), kept
B2: YncD (spore alanine racemase), adenylate cyclase T18/T25 hybrid (natural protein, Bacillus subtilis, UniProt P94494 1-394, looked up)
chain: MIKLCREVWIEVNLDAVKKNLRAIRRHIPHKSKIMAVVKANGYGHGSIEVARHALEHGASELAVASVEEGIVLRKAGITAPILVLGFTSLSCVKKSAAWNITLSAFQVDWMKEANEILEKEASANRLAIHINVDTGMGRLGVRTKEELLEVVKALKASKFLRWTGIFTHFSTADEPDTTLTKLQHEKFISFLSFLKKQGIELPTVHMCNTAAAIAFPEFSADMIRLGIGLYGLYPSAYIKQLNLVKLEPALSLKARIAYVKTMRTEPRTVSYGATYIAEPNEVIATLPIGYADGYSRALSNRGFVLHRGKRVPVAGRVTMDMIMVSLGENGEGKQGDEVVIYGKQKGAEISVDEVAEMLNTINYEVVSTLSRRIPRFYIRDGEIFKVSTPVLYV
notes: YncD, spore alanine racemase of Bacillus subtilis; gene amplified from genomic DNA of strain PY79; Cloned into pUT18, pUT18C, pKT25 and pKNT25; also called T18-YncD; YncD-T18; source: bacterial two-hybrid fusion, E. coli BTH101; not shown: T18 or T25 domain of adenylate cyclase, N-terminal or C-terminal (by the plasmid combination), kept
B3: SpoVD, adenylate cyclase T18/T25 hybrid (natural protein, Bacillus subtilis, UniProt Q03524 1-646, looked up)
chain: MRVSNVTVRKRLLFVLLFGVIVFLIIDTRLGYVQFVMGEKLTSLAKDSWSRNLPFEPERGEILDRNGVKLATNKSAPTVFVVPRQVQNPMKTSKQLAAVLNMSEEKVYKHVTKKASIEKITPEGRKISNEKAKEIKALDLKGVYVAEDSIRHYPFGSFLSHVLGFAGIDNQGLLGLEAYYDDDLKGEKGSVKFYTDAKGKKMPDEADDYTPPKDGLDMKLTVDSKVQTIMERELDNAEAKYHPDGMIAVAMNPKNGEILGMSSRPDFDPADYQSVDPSVYNRNLPVWSTYEPGSTFKIITLAAALEEQKVNLKRDQFYDKGHAEVDGARLRCWKRGGHGLQTYLEVVQNSCNPGFVELGERLGKEKLFKYIKDFGFGQKTGIDLQGEGTGILFPLERVGPVEQATTAFGQGVSVTPIQQVAAVSAAVNGGTLYTPYIAKEWIDPVTKKTVKKQSPIAKKQVISEETSKQIRYALESVVAEGTGRNAFVEGYRVGGKTGTAQKVKDGKYLENNHIVSFIGFAPADDPSLVVYVAVDNPKGTIQFGGTVAAPIVGNIMRDSLPELGVKPRKNQIEKKYQWNDTKTIEVPNVVGMSVSDLESLLVNLNVDASGKGSKIVKQSPAAGTKVKEGSKIRVYLTEEDEKEAAD
notes: gene amplified from genomic DNA; the positive combinations are N-terminal fusions; also called T18–SpoVD; T25–SpoVD; source: bacterial two-hybrid fusion, E. coli BTH101; not shown: T18 or T25 domain of adenylate cyclase, N-terminal, kept
B4: YhaX, adenylate cyclase T18/T25 hybrid (natural protein, Bacillus subtilis, UniProt O07539 1-288, looked up)
chain: MSKQLLALNIDGALLRSNGKIHQATKDAIEYVKKKGIYVTLVTNRHFRSAQKIAKSLKLDAKLITHSGAYIAEKIDAPFFEKRISDDHTFNIVQVLESYQCNIRLLHEKYSIGNKKKVNSNLLGKALIHPSDPIFYPVQFVESLSDLLMDEPVSAPVIEVYTEHDIQHDITETITKAFPAVDVIRVNDEKLNIVPKGVSKEAGLALVASELGLSMDDVVAIGHQYDDLPMIELAGLGVAMGNAVPEIKRKADWVTRSNDEQGVAYMMKEYFRMQQRKGFLDKFHMKRV
notes: YhaX, spore coat protein of unknown function of Bacillus subtilis; gene amplified from genomic DNA; also called T25–YhaX; YhaX–T18; source: bacterial two-hybrid fusion, E. coli BTH101; not shown: T18 or T25 domain of adenylate cyclase, N-terminal or C-terminal (by the plasmid combination), kept
B5: YheD, adenylate cyclase T18/T25 hybrid (natural protein, Bacillus subtilis, UniProt O07545 1-453, looked up)
chain: MNPKRFLIGIDKTSENTLFLPSSLKQDGLLHAAFGTKVVRCHVAYRRHLEQTVLLSENLFHELLLPHRSRADILIHDHTVHIGPLVGIFTAGFTVSLERPFKDRSLFFSKLVTLHEQAGGYCFVFGAHQINWEEGTIEGLLYRENGWEKKIVPLPNVVYDRLPNRKIEDSLLLQHTKKRLIDEYQIPWFNKTFFNKWNVHQLLEKDPRTAPFLPRSELTPSVELIDELCGAYKKVYIKPANGALGTGIYQLTRTDGGLTVKHTNDAKTFTSIDYSDAASFLAEFQKHHNPSDFLIQQGVDLIEFQGKPADFRVHTNKNRKGKWTVTAIAVKISGKNSITTHLSNGGTVKTLAEVYDDPAERVEVIKKLSAAALTASHVLHDHIEGFIGEIGFDFGIDQNGKVWMFEANSRPGRSIFSHPNLHHVDSLTKRRSFEYASYLSEKAITSPEALWPS
notes: YheD, spore coat protein of unknown function of Bacillus subtilis; gene amplified from genomic DNA; also called T25–YheD; YheD–T18; source: bacterial two-hybrid fusion, E. coli BTH101; not shown: T18 or T25 domain of adenylate cyclase, N-terminal or C-terminal (by the plasmid combination), kept
B6: CotE, adenylate cyclase T18/T25 hybrid (natural protein, Bacillus subtilis, UniProt P14016 1-181, looked up)
chain: MSEYREIITKAVVAKGRKFTQCTNTISPEKKPSSILGGWIINHKYDAEKIGKTVEIEGYYDINVWYSYADNTKTEVVTERVKYVDVIKLRYRDNNYLDDEHEVIAKVLQQPNCLEVTISPNGNKIVVQAEREFLAEVVGETKVVVEVNPDWEEDDEEDWEDELDEELEDINPEFLVGDPEE
notes: CotE, spore coat morphogenetic protein of Bacillus subtilis; gene amplified from genomic DNA; also called CotE-T25; T25-CotE; source: bacterial two-hybrid fusion, E. coli BTH101; not shown: T18 or T25 domain of adenylate cyclase, N-terminal or C-terminal (by the plasmid combination), kept

Key:
Assay in all cases: two-hybrid; bacterial two hybrid system (BACTH) based on adenylate cyclase T18/T25 fusions in E. coli BTH101; X-gal/IPTG indicator plates at 30 °C for 48 h; beta-galactosidase activity with ONPG in Miller units (Mu)
[1] = target: T2, SpoVM, adenylate cyclase T18/T25 hybrid (Bacillus subtilis, UniProt P37817 1-26); conditions: partners not purified
T2 construct: SpoVM, small 26-amino-acid-long basement layer coat morphogenetic peptide of Bacillus subtilis; gene amplified from genomic DNA; also called T18–SpoVM; SpoVM–T18; source: bacterial two-hybrid fusion, E. coli BTH101; not shown: T18 or T25 domain of adenylate cyclase, N-terminal or C-terminal (by the plasmid combination), kept

[2] = target: the molecule itself
[3] = target: B6; conditions: partners not purified
[4] = target: T1, SpoIVA, adenylate cyclase T18/T25 hybrid; conditions: partners not purified

T2 sequence (P37817 whole entry, the tested form may be a part): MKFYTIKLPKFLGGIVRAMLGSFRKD

| Binder | beta-galactosidase activity (Miller units) [2] | further results |
| --- | --- | --- |
| B1 | ≤ 360 Mu | beta-galactosidase activity, fold of the negative control [1]: ~2 fold |
| B2 | 220 Mu | beta-galactosidase activity (Miller units) [3]: 600 Mu; beta-galactosidase activity (Miller units) [4]: 160 Mu |
| B3 | 240 Mu | beta-galactosidase activity (Miller units) [1]: 420 Mu |
| B4 | 704 Mu |  |
| B5 | 1720 Mu |  |
| B6 | 360 Mu |  |
